How the values were obtained:
[1] = biological target: endogenous Arf6 of HEK293T cells (UniProt P62330); assay: cell-based or functional assay
[2] = biological target: calmodulin-sepharose (BioVision) (Homo sapiens (Human)) (UniProt P0DP23); assay: calcium dose-response of luciferase-IQSEC2 binding to calmodulin-sepharose; the number is a calcium concentration, not a protein concentration
[3] = biological target: calmodulin-sepharose (BioVision) (Homo sapiens (Human)) (UniProt P0DP23); assay: luciferase-IQSEC2 cell extract on calmodulin-sepharose, free calcium greater than 200 nM (calcium-calmodulin), 0.1% Triton X-100, n=11
[4] = biological target: calmodulin-sepharose (BioVision) (Homo sapiens (Human)) (UniProt P0DP23); assay: luciferase-IQSEC2 cell extract on calmodulin-sepharose, no added calcium (5 mM EGTA, apocalmodulin), 0.1% Triton X-100, n=6
GFP-FLAG [GFP: P42212] = assay: Lumier assay in HEK293T cells, negative control interactor GFP-FLAG (background)
[5] = biological target: human Calm3 (NM_005184) with C-terminal triple FLAG tag (human) (UniProt P0DP25); assay: Lumier assay in HEK293T cells, renilla luciferase after anti-FLAG pull-down
[6] = biological target: human Calm2 (NM_001743) with C-terminal triple FLAG tag (human) (UniProt P0DP24); assay: as above
[7] = biological target: human Calm1 (NM_006888) with C-terminal triple FLAG tag (human) (UniProt P0DP23); assay: as above
[8] = biological target: human Calm3 (NM_005184) with C-terminal triple FLAG tag (human) (UniProt P0DP25); assay: Lumier assay in HEK293T cells, renilla luciferase after pull-down normalized to FLAG ELISA
[9] = biological target: human Calm2 (NM_001743) with C-terminal triple FLAG tag (human) (UniProt P0DP24); assay: as above
[10] = biological target: human Calm1 (NM_006888) with C-terminal triple FLAG tag (human) (UniProt P0DP23); assay: as above

Chain of endogenous Arf6 of HEK293T cells (P62330 2-175 limits assumed): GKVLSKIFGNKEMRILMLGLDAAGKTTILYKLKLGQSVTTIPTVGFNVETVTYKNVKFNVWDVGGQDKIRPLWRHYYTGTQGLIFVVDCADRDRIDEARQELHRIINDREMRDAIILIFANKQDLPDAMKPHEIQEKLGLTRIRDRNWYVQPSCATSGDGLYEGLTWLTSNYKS

| Substance | Arf6 activation (Arf6-GTP, GGA3 pulldown and immunoblot) with ionomycin, fold over sham transfected cells [1] [fold] | Arf6 activation (Arf6-GTP, GGA3 pulldown and immunoblot), fold over sham transfected cells [1] [fold] | free calcium concentration at half-maximal binding [2] [µM] | luciferase units bound to calmodulin sepharose (luciferase units) [3] | Arf6-GTP promoted, against wild type IQSEC2 protein [1] [fold] | increase in total Arf6-GTP by ELISA against cells expressing wild type IQSEC2 [1] [%] | total Arf6-GTP by ELISA, equivalent amounts of protein extract of stable HEK293T lines (spectrophotometric units) [1] | luciferase units bound to calmodulin sepharose (luciferase units) [4] | fold change of interaction strength, wild type against mutant IQSEC2 (GFP-FLAG [GFP: P42212]) [fold] | fold difference of interaction strength, wild type against A350V IQSEC2 [5] [fold] | fold difference of interaction strength, wild type against A350V IQSEC2 [6] [fold] | fold difference of interaction strength, wild type against A350V IQSEC2 [7] [fold] | fold higher normalized interaction score, wild type against A350V IQSEC2 [8] [fold] | fold higher normalized interaction score, wild type against A350V IQSEC2 [9] [fold] | fold higher normalized interaction score, wild type against A350V IQSEC2 [10] [fold] |
| --- | --- | --- | --- | --- | --- | --- | --- | --- | --- | --- | --- | --- | --- | --- | --- |
| FLAG-tagged wild type IQSEC2 (pCAGGS) (from UniProt Q5JU85 1-1488) | 8.03 | 3.87 | – | – | – | – | – | – | – | – | – | – | – | – | – |
| renilla luciferase-HAx3-A350V IQSEC2 (from UniProt Q5JU85 1-1488) | – | – | 1 | 594 | 30 | 25 | 0.075 | 48 | – | – | – | – | – | – | – |
| renilla luciferase-HAx3-wild type IQSEC2 (full length human IQSEC2, pcDNA3.1 Zeo construct) (from UniProt Q5JU85 1-1488) | – | – | – | – | – | – | 0.06 | – | 1.07 | 36 | 15 | 34 | 31 | 14 | 31 |

From patent US20210032673A1
